US20050053993A1, “Uses of an endothelial cell receptor” (priority 2002, published 2005)
In brackets after ≈: the same amount, converted by molar mass. Values belong to the molecule of their own block, whether it stands above or below them.

Legend:
[1] = target: GRP78 on the surface of human cells (EAHY, HMVEC, HT1080) (human) (UniProt P11021); assay: cell-based or functional assay
[2] = target: GRP78 on the surface of human cells (EAHY, HMVEC, HT1080) (human) (UniProt P11021); assay: Scatchard analysis of 125I-dog K5 binding to endothelial cells
[3] = target: GRP78 on the surface of human cells (EAHY, HMVEC, HT1080) (human) (UniProt P11021); assay: Scatchard analysis of 125I-dog K5 binding to endothelial cells (50,000 cells per well, 1 hour room temperature)
HT-29 = assay: Tumor cell proliferation, HT-29; type: cell-based; details: Homo sapiens; HT-29, 72 hours
Method: (§1) Cell Proliferation Assay. The effect of rK5 and rK5 peptides on endothelial cells were assessed using a proliferation assay with 1% BSA and 3 ng/ml bFGF in serum-free media. Relative cell numbers in each well of a 96 well microplate after incubation for 72 hours in the absence or presence of inhibitors were determined by using the AQueous cell proliferation assay (Promega, San Luis Obispo, Calif.). For all other cell lines tested for proliferation, minimal growth media was used (Cao, Y., Ji, R., Davidson, D., Schaller, J., Marti, D., Sohndel, S., McCance, S., O'Reilly, M., Llinas, M., and Folkman, J. Kringle domains of human angiostatin. Characterization of the anti-proliferative activity on endothelial cells. (1996) J. Biol. Chem. 271, 29461-29467). Results are presented as the percent inhibition of control cell (bFGF-induced) proliferation.

LNCaP = assay: Tumor cell proliferation, LNCaP; type: cell-based; details: Homo sapiens, 72 hours
Method: as §1

P388 = assay: Tumor cell proliferation, P388; type: cell-based; details: Mus musculus; P388, 72 hours
Method: as §1

B16F10 = assay: Tumor cell proliferation, B16F10; type: cell-based; details: Mus musculus, B16-F10; B16F10, 72 hours
Method: as §1

D54 = assay: Tumor cell proliferation, D54; type: cell-based, human; details: Homo sapiens; D54, 72 hours
Method: as §1

HT1080 = assay: Tumor cell proliferation, HT1080; type: cell-based, human; details: Homo sapiens, HT-1080; HT1080, 72 hours
Method: as §1

[4] = target: T1, GRP78 on the surface of human cells (EAHY, HMVEC, HT1080) (human, UniProt P11021 19-654); assay: cell-based or functional assay
[5] = target: T1, GRP78 on the surface of human cells …; assay: cell-based or functional assay; remark: listed apart in the source
[6] = target: T2, yeast-expressed recombinant human GRP78 (rGRP78) (human, UniProt P11021 19-654, limits assumed); assay: equilibrium dialysis of rGRP78 and 3H-K5 (FIG. 14A)
T2 construct: also called recombinant GRP78

[7] = target: T1, GRP78 on the surface of human cells …; assay: labelled K5 binding to endothelial cells (FIG. 10A)
HMVECs = assay: Competition of 3HK5 binding to endothelial cells; set-up: species or system human; details: 2 nM 3HK5; rK5(K82A) up to 500 nM
Method: Each K5 peptide or a N-terminal antibody to GRP78 was added to HMVECs at various concentrations for 1 hour at room temperature. Cells were washed and the amount of ^3HK5 bound was counted.
Binding of human ^125IrK5 to Endothelial Cells: Tritium-labeled rK5 was added to monolayers of 50,000 HMVEC cells that were either starved or stimulated for 16 hours by 15 ng/ml bFGF and 5 ng/ml VEGF in 96 well plates. The number of counts remaining bound to the cells after extensive washing determined total amount of rK5 bound (Dudani A K, Ganz P R. Endothelial cell surface actin serves as a binding site for plasminogen, tissue plasminogen activator and lipoprotein(a). Br J Haematol. 1996 October; 95(1): 168-78). Binding of ^125IK5 (dog) to Endothelial Cells and rK5 to Recombinant GRP78: The same methods as described above for the expression and purification of human K5 were used to express dog rK5 in E. coli. ^125IK5 (dog) was added to the wells and incubated at room temperature for 1 hour. After 1 hour the cells were washed and lysed with M-Per (Pierce, Racine, Wis.) and the amount of ^125IK5 (dog) bound was counted. Scatchard plot analysis was performed using Prism (GraphPad Software, Inc., San Diego, Calif.) software. Competition binding against 5 nM ^125IK5 (dog) was tested using a monoclonal antibody against GRP78 (N-20, Santa Cruz, Calif.) or a monoclonal antibody against K5 (Green Mountain Antibodies, Burlington, Vt.). The antibodies were added to HMVECs at various concentrations for 1 hour at room temperature. Cells were washed and the amount of bound ^125IK5 (dog) bound was counted. Competition binding was also tested against 2 nM 3HK5. K5 peptides or a c-terminal antibody to GRP78 (A-129, Santa Cruz, Calif.) were added to HMVECs at various concentrations for 1 hour at room temperature. Cells were washed, lysed and the amount of ^3HK5 bound was estimated by scintillation counting.

[8] = target: T3, recombinant human GRP78 (rGRP78) (Homo sapiens, UniProt P11021); assay: Equilibrium dialysis of rGRP78 and 3HK5; type: binding; details: competition dialysis, 2 nM GRP78 and 2 nM 3HK5; mutant up to 25-fold excess of GRP78
T3 construct: host or cells: yeast
Method: FIG. 14A is a graph showing equilibrium dialysis of recombinant GRP78 (rGRP78) and ^3HK5. ^3HK5 was added to one side of an equilibrium chamber at concentrations from 0.1 to 3 nM. 2 nM GRP78 was added to the other side of the chamber with a […] mwco filter between. ^3HK5 was allowed to equilibrate to both side of the chamber for 72 hours at room temperature. The amount of ^3HK5 on the GRP78 side of the chamber was compared to chamber with ^3HK5 alone to obtain the bound verses free rK5 distribution.
FIG. 14B is a graph showing competition binding dialysis rGRP78 and ^3HK5. Experiments were performed with 2 nM GRP78 and 2 nM ^3HK5 using rK5(K82A) mutant and unlabeled rK5 at various concentrations from 0.5 to 50 nM. The amount of ^3HK5 on both sides of the chamber was measured after 72 hours and compared to the control.
Binding of rK5 to rGRP78 was measured using equilibrium dialysis (Kariv I, Cao H, Oldenburg K R. Development of a high throughput equilibrium dialysis method. J Pharm Sci. 2001 May; 90(5):580-87). In the top well of a 96 well equilibrium dialyzer (molecular weight cut off 50K Daltons, Harvard Apparatus, Holliston, M A) 150 μl of 10 nM rGRP78 was added. In the reciprocal (bottom) chamber, 150 μl of increasing concentrations from 0.1 to 50 nM ^3HK5 was added. The chambers were shaken at room temperature for 72 hours. […]

Sequence of GRP78 on the surface of human cells (EAHY, HMVEC, HT1080) (human) (P11021 19-654): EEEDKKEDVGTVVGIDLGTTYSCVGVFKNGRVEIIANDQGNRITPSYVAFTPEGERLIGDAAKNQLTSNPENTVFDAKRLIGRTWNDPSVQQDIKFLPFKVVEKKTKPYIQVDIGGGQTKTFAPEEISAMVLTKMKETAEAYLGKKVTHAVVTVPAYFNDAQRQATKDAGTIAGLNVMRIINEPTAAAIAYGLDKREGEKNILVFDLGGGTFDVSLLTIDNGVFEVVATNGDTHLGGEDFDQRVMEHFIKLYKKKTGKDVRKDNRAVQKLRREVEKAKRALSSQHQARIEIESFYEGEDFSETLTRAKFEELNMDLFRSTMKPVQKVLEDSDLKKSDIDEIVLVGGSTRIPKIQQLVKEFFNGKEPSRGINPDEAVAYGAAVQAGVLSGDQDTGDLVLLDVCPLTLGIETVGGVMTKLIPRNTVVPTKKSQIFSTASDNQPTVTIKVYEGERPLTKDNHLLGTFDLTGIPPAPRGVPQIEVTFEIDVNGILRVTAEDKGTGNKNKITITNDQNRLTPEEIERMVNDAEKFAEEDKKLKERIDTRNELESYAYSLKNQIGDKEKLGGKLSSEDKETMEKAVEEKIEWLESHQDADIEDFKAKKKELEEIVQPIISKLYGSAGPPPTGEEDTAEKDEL
T1 sequence (P11021 19-654): as above
T3 sequence (P11021 19-654): as above
T2 sequence (P11021 19-654 limits assumed): as the sequence (P11021 19-654) above

IC50, inhibition of VEGF stimulated HMVEC migration [1]: 0.5 nM | binding sites per cell (binding sites per cell) [2]: 32500 | Kd [3]: 0.8 nM
Molecule: recombinant dog kringle 5, radioiodinated (^125IrK5 (dog)) (ligand)

IC50 (HT-29): 118 ± 8 ng/mL (≈ 217 nM) | IC50 (LNCaP): 410 ± 100 ng/mL (≈ 754 nM) | IC50 (P388): 2.6 ± 0.2 ng/mL (≈ 4.78 nM) | IC50 (B16F10): 3.2 ± 0.4 ng/mL (≈ 5.89 nM) | IC50 (D54): 5 ± 0.4 ng/mL (≈ 9.2 nM) | IC50 (HT1080): 2 ± 0.3 ng/mL (≈ 3.68 nM)
Molecule: COc1cccc2c1C(=O)c1c(O)c3c(c(O)c1C2=O)C[C@@](O)(C(=O)CO)C[C@@H]3O[C@H]1C[C@H](N)[C@H](O)[C@H](C)O1 [Adriamycin, reference compound]
effect against D54 cell growth in combination with rK5 (D54 human glioma cells; Adriamycin 50 nM in combination with rK5, 72 hours): very effective | inhibition of D54 cell growth, Adriamycin alone (D54 human glioma cells; Adriamycin 50 nM, 72 hours): did not inhibit

IC50, endothelial cell migration assay (^3HK5) [4]: 0.2 nM | apoptosis of HT1080 cells under hypoxic conditions [4]: > 2 fold | IC50, inhibition of VEGF stimulated HMVEC migration [5]: 0.2 nM | Kd [6]: ~0.7 nM | Kd [7]: 0.8 nM
B1: recombinant human kringle 5 (rK5), Kringle 5 (450-543) of human plasminogen (ligand, UniProt P00747 469-562, looked up)
chain: LLPDVETPSEEDCMFGNGKGYRGKRATTVTGTPCQDWAAQEPHRHSIFTPETNPRAGLEKNYCRNPDGDVGGPWCYTTNPRKLYDYCDVPQCAA
modifications: tritium-labelled where printed as ^3HK5
notes: range 450-543; Made in E. coli (His-tag removed by enterokinase) and in Pichia pastoris; Labelled and unlabelled rK5 are treated as one molecule; also called ^3HK5; H^3K5

blocking of 3HK5 binding to rGRP78 [8]: did not block binding
B2: rK5(K82A): mutant rK5(K82A) (protein)
chain: LLPDVETPSEEDCMFGNGKGYRGKRATTVTGTPCQDWAAQEPHRHSIFTPETNPRAGLEKNYCRNPDGDVGGPWCYTTNPRALYDYCDVPQCAA
blocking of 3HK5 binding to endothelial cells (HMVECs): did not inhibit
